The source of these data is publication PMC7530888 (Nucleic Acids Research, 2020).

The data set can be described thus: Small angle X-ray scattering. The format is physicochemical, M. tuberculosis. The conditions noted are these: for Rg [from Guinier] / Rg [from P(r)]: BM29 ESRF, 10°C; for Rg [from Guinier]: 50 mM Tris pH 8.0, 200 mM NaCl, 2 mM βME; for Rg [from P(r)]: pH 8.0.

Several values for one entry are separate records, joined by “and”; a condition that tells them apart may be missing. Equal values may be shown once.

Turning to “MtbLigA: M. tuberculosis NAD^+-dependent DNA ligase A, full-length”, the “Rg [from Guinier]” value is 5.22±0.08 nm; the “Rg [from P(r)]” value is 5.20 nm and 5.20±0.06 nm. The “Rg in presence of nicked DNA” value (presence of nicked DNA substrate (S1), from P(r)) came out at 4.49 nm.
On to “MtbLigA+Nicked DNA: MtbLigA in complex with 27-mer nicked DNA (S1)”, for which the “Rg [from Guinier]” value is 4.49±0.07 nm and the “Rg [from P(r)]” value was 4.49±0.06 nm.
